# Measured values taken from US20060008801A1 (EFFECTOR CELL INSTITUTE, published 2006).
# Molecular target: T1, myc-p53 (isotope-labeled myc-fused recombinant p53, made in vitro from pAS2-1-p53) (UniProt P02340 72-390, isotope-labeled)
# T1 construct: Control of the coimmunoprecipitation
# Test: coimmunoprecipitation of isotope-labeled recombinant proteins, SDS-PAGE
# From the text: In the second test, coding sequences of pAS2-1-CCR2b and pAS2-1-p53 were amplified by PCR using a T7 promoter, a 5′ primer encoding myc epitope: 5′[…] 3′ (SEQ ID NO:44) and a 3′ primer originating in p AS2-1: 5′[…]3′ (SEQ ID NO:45) to express an epitope-tagged protein. Similarly, pACT2-FROUNT was amplified by PCR using a T7 promoter, a 5′ primer encoding HA epitope: 5′[…]3′ (SEQ ID NO:46) and a 3′ primer originating in p ACT2: 3′[…]5′ (SEQ ID NO:47). Then, isotope-labeled recombinant proteins were produced in accordance with user's manual of […] Co-IP Kit (CLONTECH Laboratories, Inc.). By the coimmunoprecipitation method using these recombinant proteins, the specific binding ability between CCR2 and FROUNT was confirmed again (FIG. 2). […] Namely, coprecipitation occurred by using the HA- or Myc-specific antibody in the coexistence of myc-CCR2 and HA-FNT, the coprecipitation disappeared by adding an antigen peptide and no coprecipitation occurred in the case of myc-p53, thereby indicating specific binding ability.
# T1 sequence (P02340 72-390): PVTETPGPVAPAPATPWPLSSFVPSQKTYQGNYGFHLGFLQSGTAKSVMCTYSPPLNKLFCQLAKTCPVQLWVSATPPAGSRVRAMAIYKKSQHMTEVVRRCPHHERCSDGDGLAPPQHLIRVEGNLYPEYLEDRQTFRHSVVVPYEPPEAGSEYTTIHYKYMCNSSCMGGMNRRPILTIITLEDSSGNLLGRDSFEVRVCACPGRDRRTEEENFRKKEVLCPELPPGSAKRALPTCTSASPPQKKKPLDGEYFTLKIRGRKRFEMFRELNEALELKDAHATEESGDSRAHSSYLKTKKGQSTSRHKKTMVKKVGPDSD
binder,measurement,value
"HA-FNT (isotope-labeled HA-fused recombinant FROUNT protein, clone 19 part, made in vitro from pACT2-FROUNT) (other, isotope-labeled, Co-IP Kit by PCR from pACT2-FROUNT; also called HA-tagged recombinant FROUNT protein; not shown: vector-encoded residues m) LVSDRFLRDYCERGCFSDLDLIDNLGPAMMLSDRLTFLGKYREFHRMYGEKRFADAASLLLSLMTSRIAPRSFWMTLLTDALPLLEQKQVIFSAEQTYELMRCLEDLTSRRPVHGESDTEQLQDDDIETTKVEMLRLSLARNLARAIIREGSLEGS",binding result,no binding
